Among the data in publication PMC5964570 are IC50 of inhibition of ACE activity (hippuric acid released from Hip-His-Leu, RP-HPLC; 50 mM HEPES, 360 mM NaCl, pH 8.3, 37°C) values, retold here.

The assay has as its target Angiotensin I converting enzyme (ACE) from rabbit lung (rabbit) (UniProt P12822).
UniProt P12822, sequence (P12822 34-1310): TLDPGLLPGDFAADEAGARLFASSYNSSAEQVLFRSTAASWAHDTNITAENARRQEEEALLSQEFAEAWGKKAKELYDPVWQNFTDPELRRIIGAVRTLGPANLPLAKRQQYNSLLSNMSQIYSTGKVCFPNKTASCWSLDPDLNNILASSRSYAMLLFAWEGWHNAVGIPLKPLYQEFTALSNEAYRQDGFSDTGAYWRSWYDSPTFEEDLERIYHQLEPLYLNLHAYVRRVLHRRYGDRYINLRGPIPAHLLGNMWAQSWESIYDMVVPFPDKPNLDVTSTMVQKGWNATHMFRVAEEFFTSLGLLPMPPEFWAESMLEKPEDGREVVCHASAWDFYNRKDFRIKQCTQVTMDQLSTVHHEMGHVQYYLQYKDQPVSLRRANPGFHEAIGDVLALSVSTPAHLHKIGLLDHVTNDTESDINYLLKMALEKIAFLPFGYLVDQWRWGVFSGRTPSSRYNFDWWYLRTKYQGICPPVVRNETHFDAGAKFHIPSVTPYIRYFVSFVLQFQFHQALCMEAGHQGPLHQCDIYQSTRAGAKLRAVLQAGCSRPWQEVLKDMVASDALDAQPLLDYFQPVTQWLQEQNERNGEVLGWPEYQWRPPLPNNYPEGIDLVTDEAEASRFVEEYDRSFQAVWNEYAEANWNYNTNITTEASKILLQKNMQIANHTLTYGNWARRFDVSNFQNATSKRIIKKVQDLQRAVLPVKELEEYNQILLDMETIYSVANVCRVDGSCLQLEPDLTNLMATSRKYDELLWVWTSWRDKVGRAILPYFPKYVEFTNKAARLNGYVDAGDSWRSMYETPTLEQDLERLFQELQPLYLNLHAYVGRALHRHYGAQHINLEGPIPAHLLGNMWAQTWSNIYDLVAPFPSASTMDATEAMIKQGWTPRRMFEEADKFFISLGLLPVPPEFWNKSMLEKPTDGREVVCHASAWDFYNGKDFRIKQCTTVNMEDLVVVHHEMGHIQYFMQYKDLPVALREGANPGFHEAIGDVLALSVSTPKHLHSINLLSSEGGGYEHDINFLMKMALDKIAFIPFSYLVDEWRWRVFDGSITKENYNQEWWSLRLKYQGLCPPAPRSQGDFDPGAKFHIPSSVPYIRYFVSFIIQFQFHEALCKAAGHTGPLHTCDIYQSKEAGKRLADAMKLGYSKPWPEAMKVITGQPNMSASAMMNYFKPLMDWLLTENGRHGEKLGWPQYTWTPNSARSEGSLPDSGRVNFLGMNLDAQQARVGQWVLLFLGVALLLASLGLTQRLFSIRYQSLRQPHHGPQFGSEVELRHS
Regarding Cys-Arg (peptide), the IC50 of inhibition of ACE activity (hippuric acid released from Hip-His-Leu, RP-HPLC; 50 mM HEPES, 360 mM NaCl, pH 8.3, 37°C) came out at 476 μM.
For Cys-Cys (peptide), the IC50 of inhibition of ACE activity (hippuric acid released from Hip-His-Leu, RP-HPLC; 50 mM HEPES, 360 mM NaCl, pH 8.3, 37°C) worked out at 4.37 μM.
With Cys-Phe (peptide) the figure was 13.8 μM.
